The results in this text go back to US20240132578A1.

What all share (assay): cell-based or functional assay
Assay [1] concerns the target HIV-1 envelope glycoprotein (Env) of isolate MGRM-C-022 (HIV-1).
Assay [2] concerns the target HIV-1 Env of isolate APV_6, clade B (HIV-1).
Assay [3] has as its target HIV-1 Env of isolate MGRM-A-009 (clade A pseudovirus) (HIV-1).
For assay [4], the target named is HIV-1 APV-13 envelope (Env) on pseudovirus (HIV-1).
The target in assay [5] is HIV-1 Env of isolate MGRM-D-004 (clade D pseudovirus) (HIV-1).
Assay [6] has as its target HIV-1 envelope glycoprotein (Env) of isolate MGRM-C-007 (HIV-1).
Assay [7] concerns the target envelope of aMLV pseudovirus (negative control).
Assay [8] deals with HIV-1 Env of isolate MGRM-D-005 (clade D pseudovirus) (HIV-1).
Assay [9] concerns the target HIV-1 Env of pseudovirus MGRM-F1-012 (clade F) (HIV-1).
The target of assay [10] is HIV-1 Env of pseudovirus MGRM-F1-016 (clade F) (HIV-1).
Assay [11] addresses HIV-1 Env of isolate QH0692.42 (Acute), clade B (HIV-1).
The target in assay [12] is HIV-1 envelope glycoprotein (Env) of isolate MGRM-C-010 (HIV-1).
For assay [13], the target named is HIV-1 MGRM-AE-006 Env (pseudovirus) (HIV-1).
Assay [14] concerns the target HIV-1 Env of isolate MGRM-D-028 (clade D pseudovirus) (HIV-1).
Assay [15] addresses HIV-1 MGRM-AG-009 Env (pseudovirus) (HIV-1).
The target in assay [16] is HIV-1 Env of isolate 92RW020 (Clade A) (HIV-1).
Assay [17] concerns the target HIV-1 Env of pseudovirus isolate APV-17 (clade B) (HIV-1).
Assay [18] addresses HIV-1 Env of isolate MGRM-C-027 (subtype C), on pseudovirus (HIV-1).
Assay [19] has as its target HIV-1 Env of isolate MGRM-D-002 (HIV-1).
The target of assay [20] is HIV-1 Env of pseudovirus isolate 93TH305 (clade B) (HIV-1).
For assay [21], the target named is HIV-1 Env of isolate MGRM-G-014 (subtype G) (HIV-1).
Assay [22] deals with HIV-1 Env of isolate MG RM-A-008 (pseudovirus) (HIV-1).
Assay [23] has as its target HIV-1 Env of isolate MGRM-G-006 (subtype G) (HIV-1).
Assay [24] deals with HIV-1 Env of isolate MGRM-C-015 (subtype C), on pseudovirus (HIV-1).
Assay [25] addresses HIV-1 Env of isolate MGRM-G-024 (subtype G) (HIV-1).
In assay [26] the target is HIV-1 Env of isolate MGRM-D-008 (HIV-1).
Assay [27] concerns the target HIV-1 Env of isolate MGRM-D-016 (pseudovirus) (HIV-1).
Assay [28] concerns the target HIV-1 JR-CSF Env I424A (HIV-1 (isolate JR-CSF)) (UniProt P20871).
Assay [29] deals with HIV-1 JR-CSF Env T394A (HIV-1 (isolate JR-CSF)) (UniProt P20871).
Assay [30] deals with HIV-1 Env of isolate MGRM-F1-022 (HIV-1).
In assay [31] the target is HIV-1 JR-CSF Env E466A (HIV-1 (isolate JR-CSF)) (UniProt P20871).
The target of assay [32] is HIV-1 JR-CSF Env N411A (HIV-1 (isolate JR-CSF)) (UniProt P20871).
Assay [33] addresses HIV-1 MGRM-D-018 envelope protein (Env) on pseudovirus (HIV-1).
The target of assay [34] is HIV-1 Env of isolate MGRM-A-014 (subtype A) (HIV-1).
Assay [35] concerns the target HIV-1 JR-CSF Env T413A (HIV-1 (isolate JR-CSF)) (UniProt P20871).
For assay [36], the target named is HIV-1 Env of isolate MGRM-D-021 (pseudovirus) (HIV-1).
Assay [37] has as its target HIV-1 Env of isolate CMU02 (subtype AE) (HIV-1).

For 4E10 (antibody), the IC50 (µg/ml), pseudovirus neutralization in [1] was 5.71 µg/mL; in [2], 1.1 µg/mL; in [3], 12 µg/mL; in assay [6] it was 5.84 µg/mL; in [11] it was 12.7 µg/mL; in assay [12] it was 11 µg/mL. The figures for the IC50 (µg/ml), pseudovirus neutralization in [13] and in assay [15] were 0.23 µg/mL and 31.4 µg/mL, respectively. This substance also returned a neutralization IC50 in assay [4] of 3.8 µg/mL. Also, the IC50, pseudovirus neutralization in assay [5] is 1.58 µg/mL; in assay [8], 35.2 µg/mL; in [14], 1.28 µg/mL. Further, the half-maximal inhibitory concentration (IC50) in assay [7] is more than 50 µg/mL; in [9], 0.37 µg/mL; in [10], 7.61 µg/mL. The same substance yielded an IC90 (neutralization of pseudovirus) in assay [16] of 36.1 µg/mL.

As for 4995_P16 (PGT-145) (antibody), the IC50, pseudovirus neutralization in assay [17] was 0.488 µg/mL; in [20] it was 0.032 µg/mL. The values for the IC50, single-round pseudovirus neutralization in assay [18] and in assay [24] were 0.095 µg/mL and 0.12 µg/mL, respectively. For the same substance, the IC50 (µg/mL), pseudovirus neutralization in assay [19] is more than 50 µg/mL; in assay [21], 0.144 µg/mL; in assay [23] it was 0.286 µg/mL; in assay [25], 0.06 µg/mL; in assay [26], 0.025 µg/mL. The substance also registered an IC50 (µg/mL), single-round pseudovirus neutralization in [22] of more than 50 µg/mL.

Take 4993_K13 (PGT-141) (antibody): the IC50, pseudovirus neutralization in [17] was 0.59 µg/mL; in [20], more than 50 µg/mL. The IC50, single-round pseudovirus neutralization in assay [18] is 3.27 µg/mL; in assay [24] it was 0.033 µg/mL. The IC50 (µg/mL), pseudovirus neutralization in [19] was more than 50 µg/mL; in assay [21], 0.222 µg/mL; in assay [23], 0.043 µg/mL; in [25], 0.051 µg/mL; in assay [26], 0.371 µg/mL. The substance also yielded an IC50 (µg/mL), single-round pseudovirus neutralization in [22] of more than 50 µg/mL.

For the substance b12 (antibody), the IC50 (µg/ml), pseudovirus neutralization is more than 50 µg/mL in assay [1]; more than 50 µg/mL in assay [2]; 4.34 µg/mL in assay [3]; more than 50 µg/mL in assay [6]; 0.73 µg/mL in assay [11]; more than 50 µg/mL in assay [12]. Besides, the IC50 (µg/ml), pseudovirus neutralization in assay [13] and in [15] was more than 50 µg/mL in each case. Moreover, the neutralization IC50 in [4] is more than 25 µg/mL. The IC50, pseudovirus neutralization in [5] was more than 50 µg/mL; in [8], more than 50 µg/mL; in assay [14] it was 0.78 µg/mL. Moreover, the IC50 in [7], in assay [9] and in assay [10] was more than 50 µg/mL throughout. The IC90 (neutralization of pseudovirus) in assay [16] was more than 50 µg/mL.

For 4995_E20 (PGT-142) (antibody), the IC50, pseudovirus neutralization stood at 0.628 µg/mL in assay [17] and 5.86 µg/mL in [20]. Further, the IC50, single-round pseudovirus neutralization turned out to be 0.792 µg/mL in assay [18] and 0.038 µg/mL in assay [24]. Besides, the IC50 (µg/mL), pseudovirus neutralization in [19] was more than 50 µg/mL; in assay [21], 0.076 µg/mL; in assay [23], 0.019 µg/mL; in assay [25], 0.054 µg/mL; in [26] it was 0.174 µg/mL. In [22], the IC50 (µg/mL), single-round pseudovirus neutralization is more than 50 µg/mL.

Turning to 1495_C14 (PGC14) (antibody), the IC50 (µg/ml), pseudovirus neutralization in assay [1] is more than 50 µg/mL; in assay [2], 23 µg/mL; in assay [3], more than 50 µg/mL; in [6], more than 50 µg/mL; in assay [11], more than 50 µg/mL; in [12], more than 50 µg/mL. Further, the IC50 (µg/ml), pseudovirus neutralization in assay [13] and in assay [15] was more than 50 µg/mL throughout. The substance also registered a neutralization IC50 in [4] of more than 50 µg/mL. The IC50, pseudovirus neutralization in assay [5], in assay [8] and in assay [14] was more than 50 µg/mL each time. For the same substance, the IC50 in [7], in assay [9] and in [10] was more than 50 µg/mL throughout.

Consider 4970_K22 (PGT-144) (antibody), for which the figures for the IC50, pseudovirus neutralization in assay [17] and in assay [20] were 10.3 µg/mL and more than 50 µg/mL, respectively. The IC50, single-round pseudovirus neutralization in assay [18] is more than 50 µg/mL; in [24] it was 0.236 µg/mL. Moreover, the IC50 (µg/mL), pseudovirus neutralization in [19] is more than 50 µg/mL; in assay [21] it was 0.562 µg/mL; in [23] it was 3.84 µg/mL; in assay [25] it was 7.92 µg/mL; in assay [26], 9.85 µg/mL. For the same substance, in assay [22], the IC50 (µg/mL), single-round pseudovirus neutralization is more than 50 µg/mL.

In the case of VRC01 (antibody), the IC50, pseudovirus neutralization in [17] was 0.477 µg/mL; in assay [20], 0.243 µg/mL. Moreover, the IC50, single-round pseudovirus neutralization in [18] amounted to 0.125 µg/mL; in [24] it was 1.57 µg/mL. In addition, the IC50 (µg/mL), pseudovirus neutralization in [19] worked out at 0.252 µg/mL; in assay [21], 0.056 µg/mL; in assay [23] it was 0.055 µg/mL; in assay [25], 0.025 µg/mL; in assay [26], 0.854 µg/mL. The IC50 (µg/mL), single-round pseudovirus neutralization in assay [22] stood at 0.303 µg/mL.

For the substance 5147_N06 (PGT-130) (antibody), the IC50 (µg/mL), pseudovirus neutralization was more than 50 µg/mL in [27], more than 50 µg/mL in [30] and 0.156 µg/mL in [36]. Also, the Fold IC50 increase relative to wild-type (pseudovirus neutralization) worked out at 3.9 fold in assay [28]; 1.2 fold in [29]; 1.7 fold in [31]; 0.6 fold in assay [32]; 0.6 fold in [35]. For the same substance, the IC50 (ug/mL), pseudovirus neutralization in assay [33] turned out to be 0.0378 µg/mL. Further, the figures for the IC50, pseudovirus neutralization in assay [34] and in [37] were 0.161 µg/mL and more than 50 µg/mL, respectively.

4980_N08 (PGT-143) (antibody): the IC50, pseudovirus neutralization in assay [17] is 1.11 µg/mL; in assay [20], 17.3 µg/mL. In addition, the IC50, single-round pseudovirus neutralization in assay [18] turned out to be 0.598 µg/mL; in assay [24], 0.085 µg/mL. Besides, the IC50 (µg/mL), pseudovirus neutralization in assay [19] was more than 50 µg/mL; in assay [21], 0.107 µg/mL; in assay [23], 0.031 µg/mL; in [25], 0.048 µg/mL; in assay [26] it was 0.153 µg/mL. In [22], this substance registered an IC50 (µg/mL), single-round pseudovirus neutralization of more than 50 µg/mL.

For the substance 5343_B08 (PGT-135) (antibody), the IC50 (µg/mL), pseudovirus neutralization in [27] was more than 50 µg/mL; in assay [30], 0.964 µg/mL; in [36], more than 50 µg/mL. Further, the Fold IC50 increase relative to wild-type (pseudovirus neutralization) was 0.1 fold in assay [28]; more than 75 fold in assay [29]; 0.5 fold in assay [31]; 0.2 fold in assay [32]; 0.3 fold in assay [35]. This substance came in with an IC50 (ug/mL), pseudovirus neutralization in assay [33] of 0.0433 µg/mL. Further, the IC50, pseudovirus neutralization is 0.636 µg/mL in [34] and more than 50 µg/mL in assay [37].

As usually defined, the IC50 is the concentration that gives 50% inhibition.
